The test system of test [1] is proteases in supernatant from the 6-fold protease deletion strain M400. The test can be described thus: Protease stability of proteins spiked into supernatant of the 6-fold protease deletion strain. The conditions noted are these: pepstatin A 50 μM; SBTI 0.2 mg/ml; pH 4.2, 20 hours, 37°C. The class given is biochemical, Trichoderma reesei. The protocol: The protease stability of the model proteins IGF1, hGH, and IFNα2b were analyzed by spiking them into supernatant from the 6-fold protease deletion strain (Δpep1Δtsp1Δslp1Δgap1Δgap2Δpep4) M400. The supernatant was collected from a large shake flask culture CAH15. The undiluted supernatant from the shake flask cultivation CAH15 was incubated with the purified model proteins with and without pepstatin A (50 μM) and SBTI (0.2 mg/ml) inhibitors for 20 hours at 37° C. The 5 day culture supernatant pH was around 4.2. The reaction containing 0.05 μg μl of model protein was sampled after 20 hours. 50 mM sodium citrate pH 4.0 spiked with model proteins (0.05 g 1) was used as a buffer control.
From each reaction 10 μl was loaded into an 18% SDS PAGE gel and run for 30 minutes at 200 V. The proteins in the gel were then transferred to nitrocellulose for immunoblotting. The nitrocellulose membrane was blocked for 1 hour at room temperature with 5% milk in TBST buffer. The individual blots were probed with their specific primary antibody to detect the appropriate model protein for 1 hour at room temperature on a shaker. The mouse anti-IGF1 antibody (R&D systems #mab291) was used at 2 μg/ml diluted in TBST. The mouse anti-rhGH antibody (Abeam #ab51232) was used at 2 μg/ml diluted in TBST. The mouse anti-IFNα2b antibody (Abeam #ab9386) was used at 1 μg/ml diluted in TBST. […]

A further test has as its system green fluorescent casein. The test can be described thus: Total protease activity of culture supernatants against fluorescent casein. The class given is biochemical. The conditions noted are these: 1 L fermentor, pH 5.5, casein FL. The protocol: The total protease activity of culture supernatant from the quadruple deletion strain M307 was then measured and compared with culture supernatants from the triple deletion strain M277 and the wild type strain M124. Each strain was grown in 2 liter shake flasks with 300 ml TrMM containing 40 g/l lactose, 20 g/l spent grain extract, and 100 mM PIPPS at pH 5.5. Day 7 supernatant samples were taken for total protease assay. The total protein concentrations of the supernatants were measured using the BCA assay with bovine immunoglobulin as the standard. The supernatants were diluted serially 1:2 in sodium citrate buffer at pH 5.5. […] The fluorescence was measured after 1 hour at 485 nm excitation and 530 nm emission.
The full length antibody yield calculated was 20% higher in the gap1 deletion strain from the day 6 sample. […] From the fermentor supernatants, the total protease activity against casein was measured. […]
The protein concentrations were determined from all supernatant samples from day 2-7. […] The fluorescence from the wells was measured after 2, 3, and 4 hours. The readings were done on the Varioskan fluorescent plate reader using 485 nm excitation and 530 nm emission.
The protease activity from the cultivations listed in Table 22.4 was measured in order to determine how the total protease activities were affected by the RNAi. […]

Results on one molecule are retold here after patent publication US11180767B2, “Protease deficient filamentous fungal cells and methods of use thereof” (GLYKOS FINLAND OY, priority 2012, dated 2021).

B1: SBTI: soybean trypsin inhibitor, trypsin and subtilisin inhibitor (protein)
chain: DFVLDNEGNPLENGGTYYILSDITAFGGIRAAPTGNERCPLTVVQSRNELDKGIGTIISSPYRIRFIAEGHPLSLKFDSFAVIMLCVGIPTEWSVVEDLPEGPAVKIGENKDAMDGWFRLERVSDDEFNNYKLVFCPQQAEDDKCGDIGISIDHDDGTRRLVVSKNKPLVVQFQKLDKESL
On to B1, for which the “stabilisation of hGH, IFNα2b and IGF1 in supernatant” value in test [1] is reported as “only a small benefit for product stability”. Moreover, in the test with green fluorescent casein, the “protease activity of M507 culture supplemented with inhibitor” value was “protease activity also dropped from day 6 until day 8”.
